Results from patent US20090239794A1, “HCV F PROTEIN AND USES THEREOF” (priority 2004, published 2009).

Experiments:
[1] = target: Fmut8Δ11 protein (recombinant ARFP (hepatitis C virus subtype 1a (HCV-1a)) (UniProt P0C045)); assay: ELISA Control 4: ARFP, no first antibody, secondary alone; row 1/1600
[2] = target: Fmut8Δ11 protein (recombinant ARFP (hepatitis C virus subtype 1a (HCV-1a)) (UniProt P0C045)); assay: ELISA Control 4: ARFP, no first antibody, secondary alone; row 1/200
[3] = target: Fmut8Δ11 protein (recombinant ARFP (hepatitis C virus subtype 1a (HCV-1a)) (UniProt P0C045)); assay: ELISA Control 4: ARFP, no first antibody, secondary alone; row 1/800
[4] = target: Fmut8Δ11 protein (recombinant ARFP, truncated HCV-1a F protein lacking the first 11 N-terminal amino acids) (HCV-1a) (UniProt P0C045); assay: ELISA Control 4: ARFP, no serum, secondary antibody alone; row 1/50
[5] = target: Fmut8Δ11 protein (recombinant ARFP, truncated HCV-1a F protein lacking the first 11 N-terminal amino acids) (HCV-1a) (UniProt P0C045); assay: ELISA Control 4: ARFP, no serum, secondary antibody alone; row 1/200
[6] = target: Fmut8Δ11 protein (recombinant ARFP, truncated HCV-1a F protein lacking the first 11 N-terminal amino acids) (HCV-1a) (UniProt P0C045); assay: ELISA Control 4: ARFP, no serum, secondary antibody alone; row 1/400
[7] = target: Fmut8Δ11 protein (recombinant ARFP (hepatitis C virus subtype 1a (HCV-1a)) (UniProt P0C045)); assay: ELISA Control 4: ARFP, no first antibody, secondary alone; row 1/50
[8] = target: Fmut8Δ11 protein (recombinant ARFP, truncated HCV-1a F protein lacking the first 11 N-terminal amino acids) (HCV-1a) (UniProt P0C045); assay: ELISA Control 4: ARFP, no serum, secondary antibody alone; row 1/800
[9] = target: Fmut8Δ11 protein (recombinant ARFP, truncated HCV-1a F protein lacking the first 11 N-terminal amino acids) (HCV-1a) (UniProt P0C045); assay: ELISA Control 4: ARFP, no serum, secondary antibody alone; row 1/100
[10] = target: Fmut8Δ11 protein (recombinant ARFP (hepatitis C virus subtype 1a (HCV-1a)) (UniProt P0C045)); assay: ELISA Control 4: ARFP, no first antibody, secondary alone; row 1/100
[11] = target: Fmut8Δ11 protein (recombinant ARFP, truncated HCV-1a F protein lacking the first 11 N-terminal amino acids) (HCV-1a) (UniProt P0C045); assay: ELISA Control 4: ARFP, no serum, secondary antibody alone; row 1/1600
[12] = target: Fmut8Δ11 protein (recombinant ARFP (hepatitis C virus subtype 1a (HCV-1a)) (UniProt P0C045)); assay: ELISA Control 4: ARFP, no first antibody, secondary alone; row 1/400

Q: Which OD410 [1] does the source give for “AP conjugated goat anti-mouse Ig [G, A, M] (antibody)” here?
A: 0.109 OD410

Q: What about the OD410 [2] of the same substance?
A: 0.106 OD410

Q: What about the OD410 [3] of the same substance?
A: 0.109 OD410

Q: What about the OD410 [4] of the same substance?
A: 0.131

Q: What about the OD410 [5] of the same substance?
A: 0.108

Q: What about the OD410 [6] of the same substance?
A: 0.111

Q: What about the OD410 [7] of the same substance?
A: 0.194 OD410

Q: And the OD410 [8]?
A: 0.112

Q: What about the OD410 [9] of the same substance?
A: 0.129

Q: And the OD410 [10]?
A: 0.127 OD410

Q: And the OD410 [11]?
A: 0.111

Q: What about the OD410 [12] of the same substance?
A: 0.11 OD410
